The data set is described as follows: soluble fraction after stress (log2 fold change); higher = more stays soluble; pooled small domains, quantitative proteomics. To be noted: stress: 50 degC. The essentials: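 After stress at 50°C, the amount of each protein still soluble was measured. This was done on pooled custom libraries of small protein domains, using high-throughput quantitative proteomics. The figure given is a base-two log fold change and stands for aggregation propensity, with higher values meaning more protein stays in solution.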
Turning to “HMSDGDFLQKIAEEILAQFPDKVKEYQKGKKGLIGFFMGELMKRSKGKADPKVATRILEEILSEKNGSS”, the “soluble fraction (log2)” value was 0.17.

“HMSEPRYRQLATILAQEIRSNHSAGDQLPSEQALAKRFEVNRHTVRRAVDELVAAGMVTRHQGWGTQVV”: the “soluble fraction (log2)” value was -0.0244.

With “HMSNYPYLLRTYEGKLAVFTDDLVQPDLVFDVYVRTLPELDQQQLSRGIRVKTYDELTSMIEDYI”, the “soluble fraction (log2)” value is -1.13.

“HMKRNLESVLDHIEGIGPKRRKALYKHFGNLDAMRVAELEELESVEGMNKKAALAVYEFFRRNS”: the “soluble fraction (log2)” value amounted to 0.254.

Consider “HMGKLGENIKRIREGMGLSQRQFGELIGKSDSQIWSYENDRTDILASTLYKIAAVANVDFNNLMAGIIP”, for which the “soluble fraction (log2)” value is -0.925.

As for “HMSTGYEMVREVANQGSFSKAANSLGVSGPAVSKQVKSLEERLGLVLFHRTTRAVSLTQAGRQLVDVLN”, the “soluble fraction (log2)” value stood at 0.0396.

“HMDPSVTGLLTRLGISPQTAQELAGQYEEPYILEKIAIVEAHPEYVKNAAGFVITALQEDWKD”: the “soluble fraction (log2)” value was -0.255.

“HMKGIHDYITKDGLRVVKVHYSADPDKDVTTVEGKKWMAKALLGYPGGLEGAKWRREMEIDFNA”: the “soluble fraction (log2)” value was -0.0848.

Regarding “HMQQAVTMQKPGRLLRNADGNGGAVRDLDVGMMLYPTGNRSELMWEVDDELGNRGWVNSTLFGLS”, the “soluble fraction (log2)” value was -0.109.

Regarding “HMEYYWHQLKGLEVVNTRGESLGRVRRLLETGANDVLVLEGEQERLIPYVPDTIKQVDLAKGLIEVAWDRD”, the “soluble fraction (log2)” value is -0.0728.

Regarding “HMETVMYLRQIKRPQGIYLAIQESYYDSSKKQSRTRTIESIGYLDNLRKEYEDPIAFFSQKAAAMTSEKKK”, the “soluble fraction (log2)” value was -1.51.

In the case of “HMEPPAPAPDIPYPSRVTVRREVDGWPHYYGTWTRTPPVLGYEGIWLVGVSLDGKVQFVPVDDVTIA”, the “soluble fraction (log2)” value is -0.627.

Consider “HMSSKIKYSEFITMLDKGEVESVVLKSDTLTITLKHGTGVAAQTKTTTLMEDLSELTKRLEKAGIKDFDK”, for which the “soluble fraction (log2)” value was 0.0396.

Turning to “HMGTTMLEVPNFVGEVFKEIDPEKYPNLRLVDSDYTYSNEYEAGKVISQDPVARTQVAEGSTVKLVIS”, the “soluble fraction (log2)” value was found to be 0.133.

For “HMLPRNKRIEIALTYIYGLGRHAATVVLKHANISPDKRTDDLDENDVRKLRDAIDANFRVEGDLRR”, the “soluble fraction (log2)” value is -0.0528.

“HMVQARDQNIEEGRQLVLRELDRLDLVNESLTDVAADMNMKSVEDMYAAIGAGDLRVGQVVHAVLKRAD”: the “soluble fraction (log2)” value stood at 0.00761.

For the sequence “HMVVMEIGANGSEVVKLQKRLNQLGYYTEHASGVYDVKTASAVNEFQRQNELNATGKADYTTLDMIYNQ”, the “soluble fraction (log2)” value amounted to 0.02.

Consider “HMLTANPEEVVNRLTSAGEVGVRPLLDVDDPINAISTLLAIREDVYKQFAQFDTVGKSPSEIAHEIDDFL”, for which the “soluble fraction (log2)” value stood at 0.00575.

On to “HMKEEDLPREYTDILGNSVHERLNIMIHDIIEHSQDKPEVAMSPEREEAMHGLRRWMFDHVYH”, for which the “soluble fraction (log2)” value is -0.202.

In the case of “HMEAELNSLVKTYENMKPKAAAQVFEELDMDVLLDVVERMKEKKLAPILAQVTPTRAKEITYELTQRR”, the “soluble fraction (log2)” value worked out at 0.0638.

With “HMIGDYALILNIKGGSDWYLGNRVELLFTDGTSKIVTTDKDYNAKKDMVPTQIVTYKVNDNGEYSLKALPT”, the “soluble fraction (log2)” value was -2.01.

“HMGAQPLIEPLSERELEVLALIAEGLTNAEIGRRLFIATGTVKRHVNTIYGKLDVHGRIEAIARARDLHLI”: the “soluble fraction (log2)” value is -0.276.

Turning to “HMENTIPSVIGRTLSDGVFLLESYGYVKGNVSEEFSEMPIGVIIRQFPGAGSAAEAGTRVDLVVSKGEEIV”, the “soluble fraction (log2)” value was -0.0523.

“HMEKKSKLVLAVLQGSDSDNTIRNLNERGFMVTVLSSTGGFLKKKSTTVMIGVEEDRLEEALDVLQKYAG”: the “soluble fraction (log2)” value was -0.295.

On to “HMNKLKALREEQGLSMMEIAKQLNMPYTTYVNYEKGTREPNSEMLIKFSKFFNVTIDYLIGNSEQKN”, for which the “soluble fraction (log2)” value is -0.502.

Take “HMNSRAERKEAAKEAIRNLLREGMTFEELTGPWLEKRFAEEPFNRGARSWQMLISEIKEEPEFQHL”: the “soluble fraction (log2)” value was found to be 0.00166.

As for “HMATPEINNLGRLRNAINQSNVNWHQIIKRLQNEYPNNWRQILIAIDRHDLLFRYDVENYIKYG”, the “soluble fraction (log2)” value was -1.56.

Take “HMGTHSAEQVRAAIRAIVAAEDAANPLSDARITELLAMRGIAAARRTVMKYREQLGIPSSAKRRR”: the “soluble fraction (log2)” value is -0.343.

Consider “HMDRPARDEAQSWLADVLADGPVPTAEIREEAEAAGLAWRTIQRARIALSVEPIRGDGRNAWLWQLPG”, for which the “soluble fraction (log2)” value was -1.42.

On to “HMETYTVPEVLGLTPEQAAQLPEVKDIFTLDVKEEGDFSDKPVGTIVRQSPTEGEHRKGDNLVIEVWLSV”, for which the “soluble fraction (log2)” value is -0.0593.

Turning to “HMLDLSDFEVVRDLYLSEQIWNVGDLIIARSKKDDTYKAWEIIRKGTNYVTGIDESHKVEKIWLHDILI”, the “soluble fraction (log2)” value was -1.4.

Take “HMFIPMTDAQRHLFANKLAKLPELSEYSRGTESYEDFAIRIADMLLEPPKFRMFYPLLEQLGF”: the “soluble fraction (log2)” value was -1.88.

Regarding “HMTDDALIGKTAQVTVAIKPGSVGQITARVGDERVERLARASADAEIAAGSLVTIKSIAGDSVIVAPE”, the “soluble fraction (log2)” value was 0.144.

As to “HMFLTSDEGKIMQLLEDKQRITRKDAQELLGVSQSTAGRILKTLVDNGQITQRGGGRTTRYELIK”, the “soluble fraction (log2)” value was found to be 0.184.

As to “HMGTKRWELPRRVQQMATQHGKSISTAAAEELVSRSGENTRMLDNDLVKLAQMVEAPQIELADVERWIVR”, the “soluble fraction (log2)” value was determined as 0.221.

For the sequence “HMEFSYMDQGLERYRAFLETHGHGNVPESYHELKLVNFVAHIRKLYRMNLLSEERRRALDEAGFVF”, the “soluble fraction (log2)” value is -2.17.

Regarding “HMQVEMVLSQEAHEWLLQRGFIPEYGAREMDRVIAAHLKPLLMREILFGTLKAGGKVRVQVENGALKLQP”, the “soluble fraction (log2)” value was -1.44.

Take “HMLTTIRKATVNDKTRIMEIYAYARQFMAEHGNPNQWKNNNPSEETIDNDIAKQEMYVIETDGEVHAVFY”: the “soluble fraction (log2)” value is -1.44.

For “HMSGFFVYPNPAKSNIIHFPNKKSFYIYDTSGRLLIEGKGKDFIDVSTLDRGVYLLKTFENDIVKIII”, the “soluble fraction (log2)” value was -1.25.

Regarding “HMNIAEIGQKVAQQRVALGISQERLAKLSDLSRSTIHHLEHGTLHEIGAAKLFKLLSLLDIQLK”, the “soluble fraction (log2)” value is -0.761.

With “HMETKVIVPKVTGMNSKSAINYLSARGLKYKAVPADSGKSFHVVDQYPKSGTKVSPHSTVYLYS”, the “soluble fraction (log2)” value is 0.077.

In the case of “HMTIPRLPFAFAKRFGIVLDNRPSGFVAAHKEGLLPHVLLEVQRFLGDAYTLEVVSDDDFERILGQVYQT”, the “soluble fraction (log2)” value is -3.27.

With “HMEQFRENIVRIYMEIDDYENGAKFLEMGNNRDASFYELAGDFYKYFGENELANENYDLAISA”, the “soluble fraction (log2)” value is -0.387.

Consider “HMTDVGLEAAKAAALKHAGLSADQVTGLTAKLDWDDGQRVYEVDFWQGSTEYEYEINADGTVRQYESEAH”, for which the “soluble fraction (log2)” value worked out at 0.228.

With “HMSFGKKLRSLRQEKKLSQVELSKKLNVTSQALSQYELGKRIPDAEMIIRIADFFDVSVDYLLDRT”, the “soluble fraction (log2)” value turned out to be 0.215.

As for “HMTYGYFELKAKNLDSLKQFLKGIAQVESIEEENNGLKVFLKNELESEELSEKLAEAKIFVSHLAKKK”, the “soluble fraction (log2)” value is 0.0782.

On to “HMLGDAWSMLILRDAHSGFSRFDQFRKSLGIAPTMLTKRLSVLVDEGLLEKRQYSEHPPREEYVLTQAGQD”, for which the “soluble fraction (log2)” value amounted to 0.0822.

Regarding “HMTKQMELLAQGAAKLSVDLNQRQLDQLQTYYRELVDWNQRMNLTAITQYEEVQVKHFLDSL”, the “soluble fraction (log2)” value is -0.0986.

As to “HMKVPDVQYMNKDSAIEALTANELKYTIVEAENENVAAGVVISQSVERDSQVAPGTSVELVVSTG”, the “soluble fraction (log2)” value was determined as 0.0357.

As to “HMKGTLPEMITSREEVVLKFMVNGWDAKRIASELDISVLTVRKHIANIYEKLHVQSKAEIISMAHQQKWFN”, the “soluble fraction (log2)” value was -1.52.

Take “HMRKNVAGITPNVYGMGLKDAVYLLENAGYRVKVNGRGNVVRQSINSGTRIIKGQLIILDLD”: the “soluble fraction (log2)” value is -2.73.

As to “HMGQDLEAFLLKAVGQLDQGDGVTLDALLKVAVSNGGFVREVAEAKLDDMLDAGTLDEPRFGWFRVGAT”, the “soluble fraction (log2)” value was -0.742.

As to “HMYFGNSLFQARKRSGLSQEGVAEKLGVSRQTVSKWETGETVPDIYQSKKMARLYGVSLDEL”, the “soluble fraction (log2)” value is 0.0951.

Regarding “HMAGLYSLLLVELPMERLPEDLPAIKAAWLKTGDTEAFKVALQAMSSRGWTIAVPGKHRDTQMTQL”, the “soluble fraction (log2)” value is 0.35.

Take “HMEGDKEIPNVIGKSINDAKKILEQAGLKLGEVKKVNDSSVAKNVVLSTNPNAGTKVSAGDAVSITVAEG”: the “soluble fraction (log2)” value was found to be 0.0251.

For the sequence “HMGQYSTTLDKIENSLFGFTYSNEAENTRINRIENKVYGKTSTSQTSTRIAKLKKDLSVDEMG”, the “soluble fraction (log2)” value came to 0.0362.

As for “HMQPIQPNQAKYLDGLSSKYKGKGNHSQAAQLTALRDALNAGDHAKAREIYDKLDYEPQAEAAH”, the “soluble fraction (log2)” value came to 0.351.

Consider “HMKEAISIYPNPVKDILTIRGMDETSGVSFKLYDVTGNLLLESTHSELDMSGLNRGVYFLDIAGDVRKVVK”, for which the “soluble fraction (log2)” value was determined as 0.0696.

For the sequence “HMYVTGETIRHLRTQRRMTQEQLAETLGVTGKAVSKWETGRGFPDMSLLEPLARALRISVPELLSGE”, the “soluble fraction (log2)” value was -0.614.

As to “HMIHSEEIQDHIFVKQLGEVFLRNHINYENIMKSWDDHTNVIKRFRRYPHRNKILNRESTIDEISFLKE”, the “soluble fraction (log2)” value was -0.0665.

Turning to “HMIENMQEYVRHIRAAVSDRLDLTREVEDDEIREVISQIVAEESRQNYLSLGERQTVIETVFNSMR”, the “soluble fraction (log2)” value is -0.2.

For the sequence “HMIVAHEINRHLGESDQPVEIPDNRREGAVAELLKTFNNDDAFREMDDGKYEVALDGEKVREAARSLLA”, the “soluble fraction (log2)” value turned out to be 0.027.

In the case of “HMDVPNLVGEEIKDVRRTLRHFQLEVIGEGSKIVSQVPKHGQRLPENTTIRVYLN”, the “soluble fraction (log2)” value came out at 0.155.

In the case of “HMATPIAGTKYTLNNTPVYGTEKGPSIGKRSGIYYTWDATVRNGRIRMTNSPARVGVPWQVSFWVEVNKL”, the “soluble fraction (log2)” value is -0.533.

On to “HMTPVFGEEETVLQAAVRGIISDTDQWTMEAEAKSMLNQLGFSDYEEKMAHMSGGQKKRVALVNALLTP”, for which the “soluble fraction (log2)” value stood at 0.0128.

Take “HMFPDLSPEQQRIVDVLTKSNDLQLNQLSVKTGIPIGDITSILFQMEMMGVVKPMAGGNYHLL”: the “soluble fraction (log2)” value was -1.36.

On to “HMRGAIKMAEEQMAGHKKIGSISGTAPTQGELEKKFAMAAAQMGARYYVITGLSNNNYAFGNADIY”, for which the “soluble fraction (log2)” value was -0.316.

“HMLGNIERALEMLQEVAATMDPVDIRLLLSMAQVESVRGNTEAAVKLIDEALVIDPGNERIEQIRLRVL”: the “soluble fraction (log2)” value was -0.558.

“HMKQNRNLPVQIINNGKIIESVMTEFNLDIDWVYSEAKRLGYKNIKDIFYAGINRDGQFFIVPLF”: the “soluble fraction (log2)” value was -0.448.

The record behind these values is the domain aggregation screens of Martell et al. (2025).
